# Assay results taken from article PMC3824618.
# Target: T1, wild-type human cystathionine β-synthase, HIS-tagged, expressed in HEK-293 cells (human), P35520
# T1 chain: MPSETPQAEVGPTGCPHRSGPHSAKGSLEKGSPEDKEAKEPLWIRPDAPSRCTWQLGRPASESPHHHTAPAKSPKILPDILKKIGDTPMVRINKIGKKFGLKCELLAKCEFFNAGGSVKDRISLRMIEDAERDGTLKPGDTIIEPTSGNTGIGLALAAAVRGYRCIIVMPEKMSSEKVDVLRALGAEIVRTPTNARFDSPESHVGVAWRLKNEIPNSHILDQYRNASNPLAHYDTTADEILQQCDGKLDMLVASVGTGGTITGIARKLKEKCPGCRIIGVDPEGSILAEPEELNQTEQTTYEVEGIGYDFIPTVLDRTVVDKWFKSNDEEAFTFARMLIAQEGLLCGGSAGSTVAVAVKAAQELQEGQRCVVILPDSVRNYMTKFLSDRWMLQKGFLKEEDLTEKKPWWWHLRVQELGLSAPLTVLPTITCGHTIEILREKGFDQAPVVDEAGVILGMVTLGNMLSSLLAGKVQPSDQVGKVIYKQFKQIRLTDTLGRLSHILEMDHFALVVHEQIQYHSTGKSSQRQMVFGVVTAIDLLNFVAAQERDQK
# Assay: native gel or EMSA
# Settings: remark: other sources report otherwise
binder,measurement,value
"wild-type human cystathionine β-synthase, HIS-tagged, expressed in HEK-293 cells, P35520 1-551 (enzyme) MPSETPQAEVGPTGCPHRSGPHSAKGSLEKGSPEDKEAKEPLWIRPDAPSRCTWQLGRPASESPHHHTAPAKSPKILPDILKKIGDTPMVRINKIGKKFGLKCELLAKCEFFNAGGSVKDRISLRMIEDAERDGTLKPGDTIIEPTSGNTGIGLALAAAVRGYRCIIVMPEKMSSEKVDVLRALGAEIVRTPTNARFDSPESHVGVAWRLKNEIPNSHILDQYRNASNPLAHYDTTADEILQQCDGKLDMLVASVGTGGTITGIARKLKEKCPGCRIIGVDPEGSILAEPEELNQTEQTTYEVEGIGYDFIPTVLDRTVVDKWFKSNDEEAFTFARMLIAQEGLLCGGSAGSTVAVAVKAAQELQEGQRCVVILPDSVRNYMTKFLSDRWMLQKGFLKEEDLTEKKPWWWHLRVQELGLSAPLTVLPTITCGHTIEILREKGFDQAPVVDEAGVILGMVTLGNMLSSLLAGKVQPSDQVGKVIYKQFKQIRLTDTLGRLSHILEMDHFALVVHEQIQYHSTGKSSQRQMVFGVVTAIDLLNFVAAQERDQK",stoichiometry N,4
